Results: US11827911B2, “Chimeric bacteriophage lysin with activity against Staphylococci bacteria” (priority 2008, dated 2023)

Legend:
S. aureus = assay: Binding of FITC-labeled phiNM3 CWT to bacterial cells, fluorescence microscopy; design: species or system Staphylococcus aureus; conditions: FITC-labeled protein 50 μg, 10 minutes; single or mixed populations
Source text: (§1) Most preferably, the binding molecule is a soluble binding domain of a bacterial lysin comprising a polypeptide including an amino acid sequence providing specific binding to S. aureus, such as SEQ ID NO:1 (phiNM3 CWT domain). For example, the lysin preferably includes the polypeptide sequence of S. aureus phage phiNM3 lysin (SEQ ID NO:1) (protein accession number YP_908849). The phiNM3 lysin CWT domain (SEQ ID NO:1) corresponding to amino acid residues 158-251 was cloned and expressed. […] FIG. 2A is […] showing the protein of SEQ ID NO:1 in a second column next to a set of marker proteins in a first column. […] Group A streptococci, E. coli and Bacillus cereus were used as controls.
Fluorescent labeling and binding analyses were performed on phiNM3 CWT. S. aureus strain 8325-4 genomic DNA was used to amplify the putative CWT of phiNM3 lysin using primers NM3-FWD […]-3′ (SEQ ID NO:10) and NM3-REV 5′-[…]-3′(SEQ ID NO:11). The resulting amplicon was cloned into the arabinose-inducible expression vector pBAD24. Positive clones containing the insert were confirmed by sequencing. […] The labeled-protein (50 μg) was incubated with bacterial cells for 10 minutes, washed 3× with phosphate-buffered saline (pH 7.4) and observed under fluorescence microscope.

[1] = Solubility of expressed lysins and chimeras; conditions: qualitative
Method: In another embodiment, the lysin is a chimeric protein that comprises an endopeptidase domain of the S. aureus Twort lysin upstream of the phiNM3 CWT domain (SEQ ID NO:1). The chimeric polypeptide is preferably sufficiently soluble in phosphate buffered saline (PBS). Preferred levels of solubility in PBS for the chimeric lysins is at least about 1 mg/ml and more preferably at least about 3 mg/mL. in PBS. […] One example of such a lysin is provided in SEQ ID NO:2 (AD127), shown in FIG. 5A and consisting of the Twort lysin endopeptidase domain attached to the phiNM3 CWT domain (SEQ ID NO:1). The isolated polypeptide of SEQ ID NO:2 (AD 127) was constructed by engineering S. epidermidis autolysin amidase and Twort lysin endopeptidase domains upstream of phiNM3 CWT domain, respectively.
Traditionally, Bacillus-specific lysins are expressed at high levels and are soluble in E. coli. Therefore, our first attempt was to engineer a 16-amino acid peptide (4) that is conserved in several S. aureus-specific lysins (Lu J Z, Fujiwara T, Komatsuzawa H, Sugai M, Sakon J. 2006. Cell wall-targeting domain of glycylglycine endopeptidase distinguishes among peptidoglycan cross-bridges. (Lue et al. (2006) J. Biol. Chem. 281(1):549-58) The catalytic domain of the Bacillus-specific lysin PlyB was used to generate chimera AD 103 (FIG. 4) (SEQ ID NO: 13). The chimeras were tested for expression, solubility and activity. Then the entire C-terminal CWT domain of PlyB (6) was replaced by the putative C-terminal domain of S. aureus phage Twort lysin (8) to obtain AD 105 (SEQ ID NO: 14). […] Since the lysostaphin catalytic domain […] (10) in AD 112 was of bacterial origin, we attempted to engineer a phage-derived catalytic domain upstream of the lysostaphin CWT. For this, the endopeptidase domain in Twort lysin (14) was used to construct chimera AD 119 (SEQ ID NO:3).

Group A streptococci = assay: Binding of FITC-labeled phiNM3 CWT to bacterial cells, fluorescence microscopy; conditions: FITC-labeled protein 50 μg, 10 minutes
Source text: as §1
(§2) Fluorescent labeling and binding analyses were performed on phiNM3 CWT. S. aureus strain 8325-4 genomic DNA was used to amplify the putative CWT of phiNM3 lysin using primers NM3-FWD […]-3′ (SEQ ID NO:10) and NM3-REV 5′-[…]-3′(SEQ ID NO:11). The resulting amplicon was cloned into the arabinose-inducible expression vector pBAD24. Positive clones containing the insert were confirmed by sequencing. The approximately 10-kDa phiNM3 CWT protein was expressed and the protein was purified in one step by cation-exchange chromatography. The purified protein (1 mg/ml) was incubated with 10 μl of FITC (1 mg/ml) for 1 hour. Excess FITC was removed on a desalting column. The labeled-protein (50 μg) was incubated with bacterial cells for 10 minutes, washed 3× with phosphate-buffered saline (pH 7.4) and observed under fluorescence microscope.

Bacillus cereus = assay: as above; conditions: FITC-labeled protein 50 μg, 10 minutes
Source text: as §1, §2

S. epidermidis = assay: as above; conditions: FITC-labeled protein 50 μg, 10 minutes
Source text: as §1, §2

E. coli = assay: as above; conditions: FITC-labeled protein 50 μg, 10 minutes
Source text: as §1, §2

B1: phiNM3 CWT domain: cell wall targeting domain, amino acid residues 158-251 of S. aureus phage phiNM3 lysin, approximately 10-kDa; tested FITC-labeled (protein)
chain: GKSASKITVGSKAPYNLKWSKGAYFNAKIDGLGATSATRYGDNRTNYRFDVGQAVYAPGTLIYVFEIIDGWCRIYWNNHNEWIWHERLIVKEVF
modifications: FITC label; Staphylococcus aureus phage phiNM3
notes: cell wall targeting domain, amino acid residues 158-251 of S. aureus phage phiNM3 lysin, approximately 10-kDa; tested FITC-labeled
binding to S. aureus cells (S. aureus): bound specifically
solubility of the expressed protein [1]: highly soluble
binding to streptococci (Group A streptococci): not observed
binding to Bacillus (Bacillus cereus): not observed
binding to S. epidermidis cells (S. epidermidis): bound specifically
binding to E. coli (E. coli): not observed
